Target: the molecule itself
Experiment: SEC; Superdex 75 10/300 GL, 0.5 mg protein loaded, 50 mM potassium phosphate buffer pH 7.0, 150 mM NaCl, 0.5 ml/min; column calibrated with marker proteins; self-association of RacR (octamer)

B1: C-terminally-6His-tagged RacR repressor (natural protein, Escherichia coli K-12 (Rac prophage), UniProt P76062 1-158, looked up)
chain: MLSGKDLGRAIEQAINKKIASGSVKSKAEVARHFKVQPPSIYDWIKKGSISKDKLPELWRFFSDVVGPEHWGLNEYPIPTPTNSDTKSELLDINNLYQAASDEIRAIVAFLLSGNATEPDWVDHDVRAYIAAMEMKVGKYLKALESERKSQNITKTGT
notes: RacR repressor of the cryptic Rac prophage of Escherichia coli K-12; predicted size of the 6His-tagged monomer 18.5 kDa; not shown: 6His, C-terminal, kept
stoichiometry N: 8
